Patent US20220251222A1 (Johns Hopkins, published 2022)

T1: IL-6Rα expressed on lentivirally transduced HEK 293T cells (UniProt P08887 20-468, limits assumed)
T1 construct: whole, on cells; also called IL-6Rα^+ cells; IL-6Rα^+/IL-8R^- HEK 293T cells
T1 sequence (looked up): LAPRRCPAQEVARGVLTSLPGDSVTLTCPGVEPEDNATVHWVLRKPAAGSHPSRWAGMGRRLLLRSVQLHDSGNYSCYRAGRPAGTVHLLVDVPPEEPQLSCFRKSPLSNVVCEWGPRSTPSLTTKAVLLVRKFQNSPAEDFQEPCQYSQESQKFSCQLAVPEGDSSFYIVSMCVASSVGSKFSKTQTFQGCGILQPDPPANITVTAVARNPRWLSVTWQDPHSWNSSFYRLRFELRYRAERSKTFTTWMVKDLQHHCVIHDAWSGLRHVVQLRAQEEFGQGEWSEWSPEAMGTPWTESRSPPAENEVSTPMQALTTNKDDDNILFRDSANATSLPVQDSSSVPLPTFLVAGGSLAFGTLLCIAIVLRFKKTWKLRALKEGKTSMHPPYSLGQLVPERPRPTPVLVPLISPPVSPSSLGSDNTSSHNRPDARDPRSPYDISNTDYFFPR

T2: human IL-6Rα extracellular domain (ECD), residues 89-303 of the mature protein, with C-terminal biotin … (human, UniProt P08887 108-322, biotinylated with BirA ligase on the biotin acceptor peptide)
T2 construct: range 89-303; The range 89-303 counts on the mature protein, not on the precursor; Any linkers between the ECD, BAP and His tag are not described; also called IL-6Rα ECD; recombinant IL-6Rα
T2 sequence: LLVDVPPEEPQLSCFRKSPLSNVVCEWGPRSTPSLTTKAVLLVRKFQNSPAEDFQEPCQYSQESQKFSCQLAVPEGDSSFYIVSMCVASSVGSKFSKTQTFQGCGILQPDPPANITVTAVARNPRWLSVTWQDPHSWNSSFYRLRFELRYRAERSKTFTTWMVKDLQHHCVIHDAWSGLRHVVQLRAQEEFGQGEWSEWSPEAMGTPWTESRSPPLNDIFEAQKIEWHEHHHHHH

T3: IL-6Rα and IL-8R co-expressed on IL-6Rα^+/IL-8R^+ HEK 293T cells (UniProt P08887 20-468; P25025 1-360, limits assumed)
T3 construct: whole, on cells; Not a complex: two separate receptors on the same cell; also called IL-6Rα^+/IL-8R^+ 293T cells
T3 sequence (looked up) 1: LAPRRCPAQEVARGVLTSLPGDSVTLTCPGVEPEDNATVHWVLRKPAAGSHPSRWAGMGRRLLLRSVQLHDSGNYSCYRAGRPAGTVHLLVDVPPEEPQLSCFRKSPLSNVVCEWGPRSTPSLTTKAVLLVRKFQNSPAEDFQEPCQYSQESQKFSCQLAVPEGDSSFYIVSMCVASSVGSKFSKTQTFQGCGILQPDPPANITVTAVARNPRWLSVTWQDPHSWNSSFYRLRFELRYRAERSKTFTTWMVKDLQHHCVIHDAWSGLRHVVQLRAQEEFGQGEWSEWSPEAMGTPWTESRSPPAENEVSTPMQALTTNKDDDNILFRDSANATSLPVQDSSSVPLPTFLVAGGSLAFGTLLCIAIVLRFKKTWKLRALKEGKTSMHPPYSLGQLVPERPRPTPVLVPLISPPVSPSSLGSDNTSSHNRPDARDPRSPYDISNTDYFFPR
T3 sequence (looked up) 2: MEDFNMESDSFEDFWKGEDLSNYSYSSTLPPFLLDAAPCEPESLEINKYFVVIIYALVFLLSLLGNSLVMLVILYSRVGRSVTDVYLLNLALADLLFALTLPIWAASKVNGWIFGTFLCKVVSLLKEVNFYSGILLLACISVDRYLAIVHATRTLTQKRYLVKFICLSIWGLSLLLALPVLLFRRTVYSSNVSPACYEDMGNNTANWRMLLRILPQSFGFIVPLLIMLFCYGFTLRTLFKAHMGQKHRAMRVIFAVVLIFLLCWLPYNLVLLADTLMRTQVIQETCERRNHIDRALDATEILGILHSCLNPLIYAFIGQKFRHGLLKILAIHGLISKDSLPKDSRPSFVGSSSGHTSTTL

B1: tocilizumab, recombinant monoclonal hIgG1 (anti-IL-6Rα) (antibody, V domains shown)
VH: EVQLQESGPGLVRPSQTLSLTCTVSGYSITSDHAWSWVRQPPGRGLEWIGYISYSGITTYNPSLKSRVTMLRDTSKNQFSLRLSSVTAADTAVYYCARSLARTTAMDYWGQGSLVTVSS
VL: DIQMTQSPSSLSASVGDRVTITCRASQDISSYLNWYQQKPGKAPKLLIYYTSRLHSGVPSRFSGSGSGTDFTFTISSLQPEDIATYYCQQGNTLPYTFGQGTKVEIK
notes: also called anti-IL-6Rα antibody
B2: BS2 bispecific antibody (scFv-IgG fusion: 10H2 IgG with tocilizumab scFv on the light chains) (bispecific antibody)
heavy: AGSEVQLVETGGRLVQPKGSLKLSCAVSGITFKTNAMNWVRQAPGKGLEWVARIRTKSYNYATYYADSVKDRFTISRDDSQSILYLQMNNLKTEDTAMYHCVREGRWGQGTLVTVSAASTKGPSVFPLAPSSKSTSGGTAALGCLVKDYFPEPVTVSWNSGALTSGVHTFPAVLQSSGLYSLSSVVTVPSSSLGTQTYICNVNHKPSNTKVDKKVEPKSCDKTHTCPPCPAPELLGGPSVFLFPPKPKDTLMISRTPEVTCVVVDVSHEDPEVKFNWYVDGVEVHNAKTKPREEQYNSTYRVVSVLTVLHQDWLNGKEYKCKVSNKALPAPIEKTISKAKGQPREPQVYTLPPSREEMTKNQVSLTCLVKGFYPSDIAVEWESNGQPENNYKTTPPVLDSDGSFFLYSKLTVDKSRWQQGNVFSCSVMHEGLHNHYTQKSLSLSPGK
light: AGSQAVVTQESALTTSPGETVTLTCRSSTGAVTTSNYANWVQEKPDHLFTGLIGGTNNRPPGVPARFSGSLIGDKAALTITGAQIEDEAIYFCALWYSNHLVFGGGTKLTVLRTVAAPSVFIFPPSDEQLKSGTASVVCLLNNFYPREAKVQWKVDNALQSGNSQESVTEQDSKDSTYSLSSTLTLSKADYEKHKVYACEVTHQGLSSPVTKSFNRGECGGGGSGGGGSEVQLQESGPGLVRPSQTLSLTCTVSGYSITSDHAWSWVRQPPGRGLEWIGYISYSGITTYNPSLKSRVTMLRDTSKNQFSLRLSSVTAADTAVYYCARSLARTTAMDYWGQGSLVTVSSGGGGSGGGGSGGGGSDIQMTQSPSSLSASVGDRVTITCRASQDISSYLNWYQQKPGKAPKLLIYYTSRLHSGVPSRFSGSGSGTDFTFTISSLQPEDIATYYCQQGNTLPYTFGQGTKVEIK
notes: Human IgG1-based

Experiments:
[1] = molecular target: T1, IL-6Rα expressed on lentivirally …; experiment: flow cytometry titration on IL-6Rα+/IL-8R+ HEK 293T cells; IL-6Rα+/IL-8R+ 293T cells (FIG. 7C)
Procedure: (§1) HEK 293T cells were cultured in Dulbecco's modified Eagle's medium (DMEM, Mediatech) supplemented with 10% (Hyclone), 2 mM L-glutamine and 100 U/mL penicillin-streptomycin (Gibco). For surface binding assays, IL-6Rα⁺/IL-8R⁻, IL-6Rα⁻/IL-8R⁺, IL-6Rα⁺/IL-8R⁺, and […] HEK 293T cells were trypsinized for detachment, resuspended in PBSA, and then aliquoted into 96-well plates (1×10⁵ cells per well). Cells were incubated with titrations of various monoclonal or bispecific antibodies for 2 hr at 4° C. with rotation. Cells were then washed and incubated with a 1:50 dilution of fluorescein isothiocyanate (FITC)-conjugated anti-human IgG1 antibody (Sigma-Aldrich, Clone 8c/6-39) in PBSA for 15 min at 4° C. After a final wash, cells were resuspended in PBSA and analyzed on a CytoFLEX flow cytometer (Beckman Coulter). Binding isotherms were fitted to a first-order logistic model and KD values were calculated using GraphPad Prism data analysis software. Mean fluorescence intensity (MFI) of unstimulated cells was subtracted. […]
(§2) To determine whether engineered bispecific binding agents BS1 and BS2 specifically engage target antigens in a physiologically relevant context, antibody binding to IL-6Rα⁺/IL-8R⁻, IL-6Rα⁻/IL-8R⁺, IL-6Rα⁺/IL-8R⁺, and IL-6Rα⁻/IL-8R⁻ lentivirally transduced HEK 293T cells was measured via flow cytometry. […]

[2] = molecular target: T2, human IL-6Rα extracellular domain …; experiment: BLI equilibrium titration, biotinylated IL-6Rα ECD on streptavidin tips; bivalent IgG, BLI on recombinant IL-6Rα
Procedure: Biotinylated human IL-6Rα ECD was immobilized to streptavidin-coated tips for analysis on an Octet® Red96 BLI instrument (ForteBio). Less than 5 signal units (nm) of receptor was immobilized to minimize mass transfer effects. Tips were exposed to serial dilutions of the anti-IL-6R antibody tocilizumab, the anti-IL-8R antibody 10H2, BS1, or BS2 in a 96-well plate for 300 s and dissociation was measured for 600 s. Surface regeneration for all interactions was conducted using 15 s exposure to 0.1 M glycine pH 3.0. Experiments were carried out in PBSA (phosphate-buffered saline [PBS] pH 7.3 plus 0.1% bovine serum albumin [BSA, Thermo]) at 25° C. Data was visualized and processed using the Octet® Data Analysis software version 7.1 (ForteBio). Equilibrium titration curve fitting and equilibrium dissociation constant (KD) value determination was implemented in GraphPad Prism software using a first-order logistic model. Experiments were reproduced two times with similar results.
To confirm functionality of our bispecific agents, antibodies were titrated against recombinant IL-6Rα via BLI. […] Moreover, both tocilizumab-containing engineered bispecific binding agents also bound IL-6Rα (FIG. 5).

[3] = molecular target: T1, IL-6Rα expressed on lentivirally …; experiment: flow cytometry titration on IL-6Rα+/IL-8R- HEK 293T cells; IL-6Rα+/IL-8R- 293T cells (FIG. 7A)
Procedure: as §1, §2

[4] = molecular target: T3, IL-6Rα and IL-8R co-expressed on …; experiment: flow cytometry titration on IL-6Rα+/IL-8R+ HEK 293T cells (both targets present); IL-6Rα+/IL-8R+ 293T cells, both targets present (FIG. 7C)
Procedure: as §1, §2

Binder | Kd [1] [nM] | Kd [2] [nM] | Kd [3] [nM] | Kd [4] [nM]
B1 | 3.1 | 28 | – | –
B2 | – | – | 19 | 3.4
